Results: patent publication US9777044B2, “GLUT-1 as a receptor for HTLV envelopes and its uses” (CENTRE NATIONAL DE LA RECHERCHE SCIENTIFIQUE (CNRS), priority 2003, dated 2017)

Experiments:
[1] = system: human primary hepatocytes; test: RBD binding on human primary hepatocytes
293T cells = test: Hexose uptake assay: 2-deoxyglucose; assay type: cell-based, human; settings: transfected 293T cells vs control cells
Description: Assay of hexose uptake. 2-deoxy-D[1-^3H]glucose, D[U-^14C]fructose and 3-O-[^14C]methyl-D-glucose were obtained from Amersham. Hexose uptake assay were adapted from Harrison et al. 1991). After transfection, approximately 250,000 were seeded/well in 24-well plates. […] Uptake was initiated by adding labeled hexoses to a final concentration of 0.1 mM (2 μCi/ml for 2-2-deoxy-D[1-^3H]glucose and 0.2 μCi/ml for D[U-^14C]fructose and 3-O-[^14C]methyl-D-glucose) and cells were incubated for 5′ additional minutes. Cells were then resuspended in 500 μl cold serum-free glucose-free DMEM, wash one time in serum-free glucose-free DMEM, and solubilized in 400 μl of 0.1% SDS. 3 μl was used for Bradford normalization, while the rest was used for detection of either ^3H or ^14C by liquid scintillation in a Beckman counter.

[2] = system: 293T cells and Jurkat T cells; test: RBD binding after overnight culture in the absence of glucose; set-up: species or system human; settings: both 293T cells and Jurkat T cells
Description: Cell culture. 293T human embryonic kidney and HeLa cervical carcinoma cells were grown in Dulbecco's modified Eagle medium (DMEM) with high glucose (4.5 g/l) and Jurkat T-cells were grown in RPMI supplemented with 10% fetal bovine serum (FBS) at 37° C. in a 5% CO2-95% air atmosphere. For glucose starvation experiments, cells were grown in either glucose-free DMEM (Life Technologies) or glucose-free RPMI—(Dutscher) with 10% dialyzed FBS (Life Technologies) and glucose (1 g/l) was supplemented when indicated.
Binding assays. Binding assays were carried out as previously described [Manel, 2003]. Briefly, 5×10^5 cells (293T, HeLa, Jurkat or freshly isolated human erythrocytes) were incubated with 500 μl of H1RBD, H2RBD or ARBD supernatants for 30 min at 37° C., washed with PBA (1% BSA, 0.1% sodium azide in PBS), and incubated with a sheep anti-rabbit IgG antibody conjugated to fluorescein isothiocyanate (Sigma). […] Binding was analyzed on a FACSCalibur (Becton Dickinson) and data analysis was performed using CellQuest (Becton Dickinson) and WinMDI (Scripps) softwares.

murine erythrocytes = test: RBD binding on murine erythrocytes
GLUT-1 = target: T1, GLUT-1 (Homo sapiens, UniProt P11166); test: RBD binding to cells overexpressing GLUT-1
T1 construct: factor Xa cleavage site (C); His (C); expressed in transfected cells
T1 sequence (P11166 1-492): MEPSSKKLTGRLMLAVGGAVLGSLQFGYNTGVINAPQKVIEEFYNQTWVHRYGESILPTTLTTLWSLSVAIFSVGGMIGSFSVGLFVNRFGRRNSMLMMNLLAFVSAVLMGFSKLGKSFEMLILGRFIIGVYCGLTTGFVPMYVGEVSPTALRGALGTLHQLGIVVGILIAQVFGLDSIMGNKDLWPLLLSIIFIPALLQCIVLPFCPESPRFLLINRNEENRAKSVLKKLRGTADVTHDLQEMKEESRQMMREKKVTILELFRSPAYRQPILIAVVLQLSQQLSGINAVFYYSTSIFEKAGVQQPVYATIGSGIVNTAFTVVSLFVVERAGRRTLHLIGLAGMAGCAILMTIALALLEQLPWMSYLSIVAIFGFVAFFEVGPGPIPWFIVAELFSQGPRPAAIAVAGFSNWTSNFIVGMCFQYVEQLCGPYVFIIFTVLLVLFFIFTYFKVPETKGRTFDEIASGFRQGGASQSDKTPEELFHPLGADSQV
Source text: In order to directly test the ability of HTLV envelopes to bind GLUT-1, we derived a tagged GLUT-1 expression vector and overexpressed this protein in HeLa cells. […] GLUT-3 is the closest isoform to GLUT-1, and transports glucose with kinetics similar to that of GLUT-1. Thus, we derived a tagged GLUT-3 expression vector. […] To determine if GLUT-1 transfected cells were directly responsible for the observed increased in H1RBD binding, we derived fluorescent tagged GLUT-1 and GLUT-3 to uniquevocally identity GLUT-overexpressing cells in the course of our FACS analysis. […] Consequently, we tested if HTLV glycoproteins directly interact with GLUT-1 proteins. To this end, we evaluated the ability of H1RBD to immunoprecipitate GLUT-1. […] Therefore, the GLUT-1 glucose transporter is an essential component of the HTLV envelope receptor.
Expression vectors. Full length envelope expression vectors for HTLV-1 (pCEL/2[Denesvre, 1995]) and Friend ecotropic MLV (pCEL/F [Denesvre, 1995]), have been previously described. For the HTLV-2 envelope, a fragment from pHTE2 [Rosenberg, 1998] encompassing the tax, rex and env genes and the 3′ LTR was inserted in the pCSI [Battini, 1999] vector (pCSIX.H2). Full length envelope expression vectors for amphotropic MLV (pCSI.A), or devoid of its R peptide (pCSI.AΔR), and H183FEnv that contains the N-terminal 183 amino acids of the HTLV-1 receptor-binding domain in the F-MLV envelope background, as well as truncated envelope expression vectors, derived from pCSI and encoding either of the first 215 residues of HTLV-1 SU (H1RBD), the first 178 residues of HTLV2-SU (H2RBD) or the first 397 residues of the amphotropic murine leukemia virus (MLV) SU (Amp), fused to a C-terminal rabbit IgG Fc tag (rFc) or to EGFP (H2RBD-GFP). All point mutations introduced in HTLV-1 and -2 RBD constructs were generated using the quickchange site-directed mutagenesis method and mutations were verified by sequencing. Human Glut-1 and Glut-3 cDNA were amplified by PCR from the pLib HeLa cDNA library (Clontech), and inserted into pCHIX, a modified version of the pCSI vector that contains a cassette comprising a factor Xa cleavage site, two copies of the hemagglutinin (HA) tag, and a histidine tag. The resulting construct (pCHIX.hGLUT1) encodes a GLUT-1 protein with a HA-His tag at the C-terminal end. GLUT-1 and GLUT-3 were also inserted in a modified pCSI vector containing a DsRed2 C-terminal tag. Similarly, human CD147 was amplified from 293T total RNA by RT-PCR and inserted into the pCHIX backbone in frame with the HA-His tag (pCHIX.hCD147).
Binding assays. […] Binding was analyzed on a FACSCalibur (Becton Dickinson) and data analysis was performed using CellQuest (Becton Dickinson) and WinMDI (Scripps) softwares.

B1: H1RBD: first 215 residues of HTLV-1 SU fused to a C-terminal rabbit IgG Fc tag (rFc) (protein)
chain: DYSPSCCTLTIGVSSYHSKPCNPAQPVCSWTLDLLALSADQALQPPCPNLVSYSSYHATYSLYLFPHWIKKPNRNGGGYYSASYSDPCSLKCPYLGCQSWTCPYTGAVSSPYWKFQQDVNFTQEVSRLNINLHFSKCGFPFSLLVDAPGYDPIWFLNTEPSQLPPTAPPLLPHSNLDHILEPSIPWKSKLLTLVQVDVPRDCGCKPCICTVPEVSSVFIFPPKPKDVLTITLTPKVTCVVVDISKDDPEVQFSWFVDDVEVHTAQTQPREEQFNSTFRSVSELPIMHQDWLNGKEFKCRVNSAAFPAPIEKTISKTKGRPKAPQVYTIPPPKEQMAKDKVSLTCMITDFFPEDITVEWQWNGQPAENYKNTQPIMDTDGSYFVYSKLNVQKSNWEAGNTFTCSVLHEGLHNHHTEKSLSHSPGK
binding to human primary hepatocytes [1]: unable to detect H1RBD binding | decrease in 2-deoxyglucose uptake (293T cells): approximately 4 fold | increase of binding after overnight culture in the absence of glucose [2]: 2 fold | binding on murine erythrocytes (murine erythrocytes): no significant H1RBD binding could be detected | H1RBD binding to cells overexpressing GLUT-1-DsRed2 (GLUT-1; fluorescent tagged GLUT-1, FACS analysis): significant increase | binding upon GLUT-1 overexpression (GLUT-1; tagged GLUT-1 expression vector, HeLa cells / 293T cells (FIG. 4a legend)): dramatically increased
